Entries after “also recorded” stand apart in the source; their conditions may differ.
Experiments:
[1] = system: B-CLL cells from patients; experiment: PI3K and MEK inhibitors on CD40L signaling and survival in B-CLL cells; type: cell-based, human
Protocol: A PI3K inhibitor (LY294002; Sigma, St. Louis, Mo.) and MEK inhibitor (PD98595; Cell Signaling Technology, Beverly, Mass.) were used to dissect the pathways required for CLL cell survival. In these experiments, 1.0×10^6 B-CLL cells from patients were serum starved in 1% FBS containing media for 4 hours. Serum-starved cells were then pretreated with LY294002 (PI3K inhibitor, 30 μM) or PD98595 (MEK inhibitor, 10 μM). Cell lysates were then collected before and 20 minutes after CD40L stimulation. Western blot analysis with antibodies to p-IKK α/β, p-ERK, p-Akt was conducted, and equal loading was evaluated by probing antibodies to total ERK and β-actin.

B-CLL cells [2] = experiment: p38 MAPK signaling in B-CLL cells, four-hour experiment; type: cell-based, human; details: 4 hours; SB203580 30 and 60 μM, CHIR-12.12 10 μg/mL
Protocol: In the four-hour experiment, approximately 0.8×10^6 B-CLL cells per well were serum starved in 1% FBS-containing media for 4 hours. […] Cell lysates were collected before and 20 minutes after CD40L stimulation. Western blot analysis with antibodies against specific proteins shown were conducted, and equal loading was evaluated by probing with antibodies to total p38 (t-p38) and β-actin.

B-CLL cells [3] = experiment: p38 MAPK signaling and survival in B-CLL cells, 24-hour experiment; type: cell-based, human
Protocol: In the 24-hour experiment, approximately 0.8×10^6 B-CLL cells per well were placed in full serum (10% FBS)-containing media for 24 hours. […] Western blot analysis with antibodies against specific proteins shown was conducted, and equal loading was evaluated by probing with antibodies against β-actin.

[4] = system: IM-9 tumor cells (a human multiple myeloma cell line); experiment: IM-9 multiple myeloma subcutaneous xenograft model; type: in vivo, SCID mice
Protocol: SCID mice were inoculated subcutaneously with IM-9 tumor cells (a human multiple myeloma cell line expressing both CD40 and CD20) in 50% […]™ at 5×10^6 cells per mouse. […] Alternatively, bortezomib dosing at 1 mg/kg intravenously occurred on days 5, 8, 12, and 15 after tumor implantation. […] Antibody dosing occurred on days 8, 14, and 21 post tumor implantation, while bortezomib dosing occurred on days 8, 11, 14 and 18 post tumor implantation. […] Data were analyzed using the log-rank test.

KMS-12-BM tumor = experiment: Human KMS-12-BM subcutaneous xenograft model; type: in vivo, SCID mice; details: 1 mg/kg i.v. twice a week for two weeks (maximal tolerated dose); P>0.05
Protocol: Female SCID mice were treated with 3Gy irradiation one day prior to implantation of tumor cells. On the day of implantation, cells were prepared at a concentration of 5×10^7 cells/ml in 50% matrigel. Cells were implanted subcutaneously over the right flank at 5×10^6 cells/100 μl/mouse. […] Antibodies were administered intraperitoneally once a week for 4 weeks. Bortezomib was administered intravenously twice a week for two weeks.

soluble CD40 = soluble CD40 (Homo sapiens, UniProt P25942); experiment: ELISA-type binding to soluble CD40; details: ELISA-type assays
Chain of soluble CD40 (P25942 21-193 limits assumed): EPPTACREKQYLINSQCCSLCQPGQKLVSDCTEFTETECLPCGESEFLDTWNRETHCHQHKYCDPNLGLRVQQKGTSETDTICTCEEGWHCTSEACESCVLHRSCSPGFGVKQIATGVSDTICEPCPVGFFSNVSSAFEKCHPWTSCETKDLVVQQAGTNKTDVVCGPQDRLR
Source text: (§1) 2, 2000, and PCT International Application No. PCT/US01/30857, also titled “Human Anti-CD40 Antibodies,” filed Oct. 2, 2001, both of which are herein incorporated by reference in their entirety.

[5] = system: cancer cells from NHL and CLL patients; experiment: In vitro CD40 ligand-mediated proliferation of patient cancer cells; type: cell-based, human
Source text: (§2) 4, 2003, Nov. 26, 2003, and Apr. 27, 2004, and assigned U.S. Patent Application Nos. 60/517,337, 60/525,579, and 60/565,710, respectively, and International Patent Application No. PCT/US2004/037152, also entitled “Antagonist, Anti-CD40 Monoclonal Antibodies and Methods for Their Use,” filed Nov. 4, 2004; the contents of each of which are herein incorporated by reference in their entirety.

[6] = system: primary cancer cells from NHL patients; experiment: ADCC against primary cancer cells; type: cell-based, human; details: in vitro
Source text: as §2

[7] = system: human lymphocytes from normal subjects; experiment: Proliferation of human lymphocytes; type: cell-based; details: antibody alone
cell-surface CD40 = cell-surface CD40 (Homo sapiens, UniProt P25942); experiment: Flow cytometric CD40-ligand binding blockade and displacement; details: flow cytometric assays / FACS
Chain of cell-surface CD40 (P25942 21-277): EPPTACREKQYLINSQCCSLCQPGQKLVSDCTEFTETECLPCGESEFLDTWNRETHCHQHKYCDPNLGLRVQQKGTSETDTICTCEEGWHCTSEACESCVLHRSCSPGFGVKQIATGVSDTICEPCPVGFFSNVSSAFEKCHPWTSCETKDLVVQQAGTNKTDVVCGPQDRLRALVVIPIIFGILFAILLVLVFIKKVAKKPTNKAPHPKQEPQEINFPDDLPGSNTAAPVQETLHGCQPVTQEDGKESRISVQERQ
Source text: as §1, §2

[8] = system: B cells from normal human subjects; experiment: In vitro CD40 ligand-mediated proliferation of normal B cells; type: cell-based
Source text: as §1, §2

[9] = system: CD40-expressing target cells; experiment: ADCC activity of anti-CD40 antibodies (Table 1); type: cell-based
normal B cells = experiment: CD40L-induced cytokine secretion from normal B cells (Meso Scale Discovery); type: cell-based, human; details: 24 hours
Protocol: (§3) Cells (1×10^5 cells per well) were cultured in a 96-well plate in the presence or absence of CD40L (CD40 transfected, formaldehyde fixed CHO cells, 2×10^5 per well). […] Production of hIL-6, hIL-8, hIL-10, hTNF-α, hGM-CSF, hIL-1b, hIL-12p70, MCP-1, and MIP-1β was measured by Meso Scale Discovery® multi-array system (Meso Scale Discovery, Gaithersburg, Md.).

B-CLL cells [10] = experiment: CellTiter-Glo viability of CLL patient PBMCs; type: cell-based, human; details: 72 hours, 2 μg/ml rhsCD40L + 4 μg/ml enhancer
Protocol: Cell viability was determined after 72 hours using the CellTiter-Glo® Luminescent Cell Viability Kit (Promega, Madison, Wis.), which measures cellular ATP, and expressed as Relative Luminescence Units (RLU). Percent blockade was calculated as follows: […]

B-CLL cells [11] = experiment: cPARP flow cytometry of CLL patient PBMCs; type: cell-based, human; details: 24 hours
Protocol: [formula] cPARP analysis by flow cytometry was performed after 24 hours in culture. Cells were treated with FACSLysis buffer (BD Biosciences) and frozen. After fixation in 1% formaldehyde for 45 min, cells were washed and incubated with PE-conjugated mouse anti-human CD19 for 30 min at room temperature (RT). Cells were then permeabilized using 70% ethanol on ice for 30 min and stained for 30 min at RT with rabbit anti-human cPARP antibody or isotype control rabbit IgG along with PerCP-Cy5.5-labeled mouse anti-human CD5. This was followed by incubation with goat anti-rabbit IgG-AlexaFluor 647 for 30 min at RT before fixing with 1% formaldehyde and analyzing by flow cytometry. Percent blockade was calculated as follows: […]

CLL cells = experiment: CD40L-induced cytokine secretion by CLL cells (Meso Scale Discovery); type: cell-based, human; details: CLL #1; 24 hours
Protocol: as §3

COc1cccc(-c2cc(=O)c3ccccc3o2)c1N [PD98595]
IKK/NFkB activation ([1]; LY294002 30 μM or PD98595 10 μM): no change of IKK/NFkB activation
survival mediated by CD40L (cleaved PARP, caspase-3, Bcl-xl) ([1]; LY294002 or PD98595, FIG. 9): no change of survival mediated by CD40L
activation of ERK induced by CD40L ([1]; PD98595 10 μM, 20 minutes after CD40L): inhibited activation of ERK

C[S+]([O-])c1ccc(-c2nc(-c3ccncc3)c(-c3ccc(F)cc3)[nH]2)cc1 (stereo not shown) [SB203580, reference compound]
p38 activation by CD40L (B-CLL cells [2]): slightly inhibited
cleaved Caspase-3 (B-CLL cells [3]; CD40L): induced to a lesser extent
p38 phosphorylation (B-CLL cells [3]; CD40L): similarly blocked
cleaved-PARP (B-CLL cells [3]; SB203580 30 and 60 μM, CHIR-12.12 10 μg/mL, CD40L): significantly induced
Bcl-xl expression (B-CLL cells [3]; especially 60 μM SB203580 and 10 μg/ml CHIR-12.12): blocked

CC(C)C[C@H](NC(=O)[C@H](Cc1ccccc1)NC(=O)c1cnccn1)B(O)O [bortezomib, reference compound]
tumor growth ([4]; first study, CHIR-12.12 1 and 10 mg/kg i.p. days 5, 12, 18, bortezomib 1 mg/kg i.v. days 5, 8, 12, 15): inhibited tumor growth at 15, 18, and 21 days post tumor implantation
tumor growth ([4]; second study, bortezomib 1 mg/kg i.v. days 8, 11, 14, 18): did not display statistically significant growth inhibition
tumor volume reduction (KMS-12-BM tumor): 22%

CHIR-5.9: fully human anti-CD40 monoclonal antibody of the IgG1 isotype from hybridoma cell line 131.2F8.5.9 (ATCC PTA-5542)
binding to soluble CD40 (soluble CD40): bind soluble CD40
effect on CD40 ligand-mediated proliferation of cancer cells [5]: inhibiting in vitro CD40 ligand-mediated proliferation of cancer cells from NHL and CLL patients
killing of primary cancer cells by ADCC [6]: kill primary cancer cells from NHL patients by ADCC
induction of lymphocyte proliferation (agonist activity) [7]: do not induce strong proliferation of human lymphocytes from normal subjects
displacement of pre-bound CD40-ligand (cell-surface CD40): displace the pre-bound CD40-ligand; also recorded: can compete off CD40-ligand pre-bound to cell surface CD40
prevention of CD40-ligand binding to cell-surface CD40 (cell-surface CD40): prevent the binding of CD40-ligand to cell-surface CD40; also recorded: can prevent CD40-ligand binding
effect on proliferation of normal B cells [8]: act as antagonist anti-CD40 antibodies; also recorded: inhibit in vitro CD40 ligand-mediated proliferation of normal B cells
killing of CD40-expressing target cells by ADCC [9]: able to kill CD40-expressing target cells

B1: CD40L: CD40 ligand used as stimulus: transfected formaldehyde fixed CHO cells (Example 4) or recombinant human soluble CD40L (Example 7) (protein)
chain: MIETYNQTSPRSAATGLPISMKIFMYLLTVFLITQMIGSALFAVYLHRRLDKIEDERNLHEDFVFMKTIQRCNTGERSLSLLNCEEIKSQFEGFVKDIMLNKEETKKENSFEMQKGDQNPQIAAHVISEASSKTTSVLQWAEKGYYTMSNNLVTLENGKQLTVKRQGLYYIYAQVTFCSNREASSQAPFIASLCLKSPGRFERILLRAANTHSSAKPCGQQSIHLGGVFELQPGASVFVNVTDPSQVSHGTGFTSFGLLKL
MCP-1 secretion (normal B cells; Donor 1): 5.5 folds of induction over background
MIP-1β secretion (normal B cells; Donor 1): 2.2 folds of induction over background
hGM-CSF secretion (normal B cells; Donor 1): no induction
hIL-1b secretion (normal B cells; Donor 1): no induction
hIL-6 secretion (normal B cells; Donor 1): 5.7 folds of induction over background
hIL-8 secretion (normal B cells; Donor 1): 7.7 folds of induction over background
hIL-10 secretion (normal B cells; Donor 1): 3.6 folds of induction over background
hIL-12p70 secretion (normal B cells; Donor 1): no induction
hTNF-α secretion (normal B cells; Donor 1): 3.7 folds of induction over background
MIP-1β secretion (normal B cells; Donor 2): 2.6 folds of induction over background
hIL-1b secretion (normal B cells; Donor 2): no induction
hIL-6 secretion (normal B cells; Donor 2): 3.8 folds of induction over background
hIL-8 secretion (normal B cells; Donor 2): 14.7 folds of induction over background
hTNF-α secretion (normal B cells; Donor 2): 4.8 folds of induction over background
MCP-1 secretion (normal B cells; Donor 3): 1.7 folds of induction over background
MIP-1β secretion (normal B cells; Donor 3): 17.8 folds of induction over background
hGM-CSF secretion (normal B cells; Donor 3): no induction
hIL-1b secretion (normal B cells; Donor 3): no induction
hIL-6 secretion (normal B cells; Donor 3): 20.5 folds of induction over background
hIL-8 secretion (normal B cells; Donor 3): 49.3 folds of induction over background
hIL-10 secretion (normal B cells; Donor 3): 3.6 folds of induction over background
hIL-12p70 secretion (normal B cells; Donor 3): no induction
hTNF-α secretion (normal B cells; Donor 3): 22.8 folds of induction over background
samples in which CD40L promoted survival of B-CLL cells (B-CLL cells [10]): 7/7
samples in which CD40L promoted survival of B-CLL cells (B-CLL cells [11]): 6/7
MCP-1 secretion (CLL cells): 5.5 folds of induction over background
MIP-1β secretion (CLL cells): no induction
hGM-CSF secretion (CLL cells): 7.6 folds of induction over background
hIL-1b secretion (CLL cells): no induction
hIL-6 secretion (CLL cells): no induction
hIL-8 secretion (CLL cells): 4.0 folds of induction over background
hIL-10 secretion (CLL cells): 9.2 folds of induction over background
hTNF-α secretion (CLL cells): 3.3 folds of induction over background

Source: patent US8337851B2, “Methods of monitoring the efficacy of anti-CD40 antibodies in treating a subject for a CD40-expressing cancer” (Novartis AG, priority 2005, dated 2012)
